Data on 23 variants can be found in the supplement of paper PMC7125110.

± gives the standard error. Fewer inactive variants are shown than the library holds.

First the molecules themselves.
B1: glmS ribozyme (parent)
chain: AUAAAAGCGCCAGAACUACAGAAAUGUAGUUGACGAGGAGGAGGUUUAUCGAAUUUUCGGCGGAUGCCUCCAAA

Holding throughout (conditions): with glucosamine-6-phosphate
The variants in data set [1] derive from B1. As to the kind of experiment: self-cleavage kobs at 40 uM GlcN6P; higher = faster cleavage; RNA array. Put shortly: (§1)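 Tracking of barcoded ribozyme variants used a hybridised Cy3 probe at 37 °C, after in situ transcription by E. coli RNA polymerase on sequenced MiSeq chips. The flowed solution held 40 μM to 10 mM glucosamine-6-phosphate in HEPES/KCl/Mg(OAc)2 buffer, and imaging ran over ~14 h. kobs was taken from exponential decay fits of normalised per-tile medians, and kcat and KM from weighted Michaelis–Menten fits.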

Variants of B1 are the subject of data set [2]. Put plainly: self-cleavage kobs at 160 uM GlcN6P; higher = faster cleavage; RNA array. Put shortly: as §1
In data set [3] the parent is B1. Put plainly: self-cleavage kobs at 640 uM GlcN6P; higher = faster cleavage; RNA array. The essentials: as §1
Variants of B1 are the subject of data set [4]. Put plainly: self-cleavage kobs at 10000 uM GlcN6P; higher = faster cleavage; RNA array. Put shortly:
as §1

The variants in data set [5] derive from B1. As to the kind of experiment: self-cleavage kobs at 2500 uM GlcN6P; higher = faster cleavage; RNA array. Put shortly:
as §1

G43A C61U C71A: the “self-cleavage kobs at 40 uM GlcN6P” value with glucosamine-6-phosphate [1] was less than 1e-05 s⁻¹.
Regarding G7C C11A, in the data set with glucosamine-6-phosphate [1], the “self-cleavage kobs at 40 uM GlcN6P” value was less than 1e-05 s⁻¹. Further, the “self-cleavage kobs at 160 uM GlcN6P” value with glucosamine-6-phosphate [2] is less than 1e-05 s⁻¹. The “self-cleavage kobs at 640 uM GlcN6P” value with glucosamine-6-phosphate [3] was less than 1e-05 s⁻¹. The “self-cleavage kobs at 10000 uM GlcN6P” value with glucosamine-6-phosphate [4] is less than 1e-05 s⁻¹.
Take A52U C58G: the “self-cleavage kobs at 40 uM GlcN6P” value with glucosamine-6-phosphate [1] is less than 1e-05 s⁻¹. In the data set with glucosamine-6-phosphate [3], the “self-cleavage kobs at 640 uM GlcN6P” value is less than 1e-05 s⁻¹. In addition, the “self-cleavage kobs at 10000 uM GlcN6P” value in the data set with glucosamine-6-phosphate [4] is less than 1e-05 s⁻¹.
Consider A33C U47C G59A, for which the “self-cleavage kobs at 40 uM GlcN6P” value with glucosamine-6-phosphate [1] is less than 1e-05 s⁻¹.
In the case of A39U A42G U65A, the “self-cleavage kobs at 40 uM GlcN6P” value with glucosamine-6-phosphate [1] was determined as 4.73e-05 ± 1.7e-05 s⁻¹. Besides, the “self-cleavage kobs at 10000 uM GlcN6P” value with glucosamine-6-phosphate [4] was 0.00165 ± 0.00027 s⁻¹.
In the case of C11A G40C U54A, the “self-cleavage kobs at 40 uM GlcN6P” value with glucosamine-6-phosphate [1] was less than 1e-05 s⁻¹.
For the variant A6G A33U A53U, the “self-cleavage kobs at 40 uM GlcN6P” value with glucosamine-6-phosphate [1] was less than 1e-05 s⁻¹. Besides, the “self-cleavage kobs at 10000 uM GlcN6P” value in the data set with glucosamine-6-phosphate [4] is less than 1e-05 s⁻¹.
As to G21C G29A, the “self-cleavage kobs at 40 uM GlcN6P” value in the data set with glucosamine-6-phosphate [1] was 6.68e-05 ± 2.4e-05 s⁻¹. The “self-cleavage kobs at 10000 uM GlcN6P” value with glucosamine-6-phosphate [4] came out at 0.00366 ± 0.00094 s⁻¹.
In the case of U46G C61U, the “self-cleavage kobs at 40 uM GlcN6P” value with glucosamine-6-phosphate [1] was less than 1e-05 s⁻¹. Besides, the “self-cleavage kobs at 160 uM GlcN6P” value with glucosamine-6-phosphate [2] was less than 1e-05 s⁻¹. Also, in the data set with glucosamine-6-phosphate [3], the “self-cleavage kobs at 640 uM GlcN6P” value is less than 1e-05 s⁻¹.
For A6U G9U A15C U30A U49C, the “self-cleavage kobs at 40 uM GlcN6P” value in the data set with glucosamine-6-phosphate [1] was less than 1e-05 s⁻¹.
With G9U A36C G38C, the “self-cleavage kobs at 40 uM GlcN6P” value with glucosamine-6-phosphate [1] is less than 1e-05 s⁻¹. Further, the “self-cleavage kobs at 10000 uM GlcN6P” value in the data set with glucosamine-6-phosphate [4] was less than 1e-05 s⁻¹.
Consider G35A G60A G66U C67U U69G, for which the “self-cleavage kobs at 40 uM GlcN6P” value with glucosamine-6-phosphate [1] is less than 1e-05 s⁻¹. Also, the “self-cleavage kobs at 2500 uM GlcN6P” value with glucosamine-6-phosphate [5] is less than 1e-05 s⁻¹.
On to C34A U45G C68U C71A, for which the “self-cleavage kobs at 40 uM GlcN6P” value with glucosamine-6-phosphate [1] was less than 1e-05 s⁻¹. Further, the “self-cleavage kobs at 160 uM GlcN6P” value with glucosamine-6-phosphate [2] is less than 1e-05 s⁻¹. The “self-cleavage kobs at 2500 uM GlcN6P” value with glucosamine-6-phosphate [5] was less than 1e-05 s⁻¹. For the same variant, the “self-cleavage kobs at 10000 uM GlcN6P” value in the data set with glucosamine-6-phosphate [4] was less than 1e-05 s⁻¹.
With C8A U45A, in the data set with glucosamine-6-phosphate [1], the “self-cleavage kobs at 40 uM GlcN6P” value is less than 1e-05 s⁻¹. The “self-cleavage kobs at 160 uM GlcN6P” value with glucosamine-6-phosphate [2] was less than 1e-05 s⁻¹. For the same variant, the “self-cleavage kobs at 640 uM GlcN6P” value in the data set with glucosamine-6-phosphate [3] is less than 1e-05 s⁻¹. Also, the “self-cleavage kobs at 2500 uM GlcN6P” value with glucosamine-6-phosphate [5] was less than 1e-05 s⁻¹. For the same variant, in the data set with glucosamine-6-phosphate [4], the “self-cleavage kobs at 10000 uM GlcN6P” value is less than 1e-05 s⁻¹.
Regarding A64C G66C, in the data set with glucosamine-6-phosphate [1], the “self-cleavage kobs at 40 uM GlcN6P” value is less than 1e-05 s⁻¹. In the data set with glucosamine-6-phosphate [2], the “self-cleavage kobs at 160 uM GlcN6P” value was less than 1e-05 s⁻¹. In the data set with glucosamine-6-phosphate [3], the “self-cleavage kobs at 640 uM GlcN6P” value is less than 1e-05 s⁻¹.
With A15G C71U, the “self-cleavage kobs at 40 uM GlcN6P” value with glucosamine-6-phosphate [1] turned out to be 0.00111 ± 0.0001 s⁻¹. For the same variant, the “self-cleavage kobs at 160 uM GlcN6P” value with glucosamine-6-phosphate [2] is 0.00193 ± 0.00039 s⁻¹. In the data set with glucosamine-6-phosphate [3], the “self-cleavage kobs at 640 uM GlcN6P” value was found to be 0.00696 ± 0.0013 s⁻¹. The “self-cleavage kobs at 2500 uM GlcN6P” value with glucosamine-6-phosphate [5] worked out at 0.0534 ± 0.021 s⁻¹. In the data set with glucosamine-6-phosphate [4], the “self-cleavage kobs at 10000 uM GlcN6P” value turned out to be 0.0519 ± 0.014 s⁻¹.
Consider G7C A39G C70U, for which the “self-cleavage kobs at 40 uM GlcN6P” value with glucosamine-6-phosphate [1] is less than 1e-05 s⁻¹. The “self-cleavage kobs at 10000 uM GlcN6P” value with glucosamine-6-phosphate [4] is less than 1e-05 s⁻¹.
On to G7A U30G U45G C67G C68A, for which the “self-cleavage kobs at 40 uM GlcN6P” value in the data set with glucosamine-6-phosphate [1] amounted to 0.000126 ± 4e-05 s⁻¹. Also, the “self-cleavage kobs at 10000 uM GlcN6P” value in the data set with glucosamine-6-phosphate [4] stood at 0.00014 ± 3.6e-05 s⁻¹.
As for G7C A39C, in the data set with glucosamine-6-phosphate [1], the “self-cleavage kobs at 40 uM GlcN6P” value was less than 1e-05 s⁻¹. Also, the “self-cleavage kobs at 160 uM GlcN6P” value with glucosamine-6-phosphate [2] was less than 1e-05 s⁻¹. Also, the “self-cleavage kobs at 10000 uM GlcN6P” value with glucosamine-6-phosphate [4] was less than 1e-05 s⁻¹.
Take G7C A39G: the “self-cleavage kobs at 40 uM GlcN6P” value in the data set with glucosamine-6-phosphate [1] was less than 1e-05 s⁻¹. Further, in the data set with glucosamine-6-phosphate [2], the “self-cleavage kobs at 160 uM GlcN6P” value was less than 1e-05 s⁻¹. Moreover, the “self-cleavage kobs at 640 uM GlcN6P” value with glucosamine-6-phosphate [3] was less than 1e-05 s⁻¹. The “self-cleavage kobs at 2500 uM GlcN6P” value with glucosamine-6-phosphate [5] was less than 1e-05 s⁻¹. The “self-cleavage kobs at 10000 uM GlcN6P” value with glucosamine-6-phosphate [4] is less than 1e-05 s⁻¹.
For the variant A33G U46G G62C, the “self-cleavage kobs at 40 uM GlcN6P” value with glucosamine-6-phosphate [1] was less than 1e-05 s⁻¹. In the data set with glucosamine-6-phosphate [3], the “self-cleavage kobs at 640 uM GlcN6P” value was less than 1e-05 s⁻¹. Besides, the “self-cleavage kobs at 2500 uM GlcN6P” value with glucosamine-6-phosphate [5] is less than 1e-05 s⁻¹.
With A12C C16G, the “self-cleavage kobs at 40 uM GlcN6P” value with glucosamine-6-phosphate [1] is 8.16e-05 ± 1.1e-05 s⁻¹. Also, the “self-cleavage kobs at 160 uM GlcN6P” value with glucosamine-6-phosphate [2] came out at 0.000158 ± 3.6e-05 s⁻¹. The “self-cleavage kobs at 640 uM GlcN6P” value in the data set with glucosamine-6-phosphate [3] turned out to be 0.00067 ± 0.00012 s⁻¹. The “self-cleavage kobs at 2500 uM GlcN6P” value with glucosamine-6-phosphate [5] came out at 0.00161 ± 0.00035 s⁻¹. Besides, the “self-cleavage kobs at 10000 uM GlcN6P” value with glucosamine-6-phosphate [4] is 0.00517 ± 0.00083 s⁻¹.
With G7C A33G, the “self-cleavage kobs at 40 uM GlcN6P” value in the data set with glucosamine-6-phosphate [1] was less than 1e-05 s⁻¹. Besides, the “self-cleavage kobs at 160 uM GlcN6P” value with glucosamine-6-phosphate [2] is less than 1e-05 s⁻¹. Besides, the “self-cleavage kobs at 640 uM GlcN6P” value with glucosamine-6-phosphate [3] is less than 1e-05 s⁻¹. For the same variant, the “self-cleavage kobs at 10000 uM GlcN6P” value with glucosamine-6-phosphate [4] was less than 1e-05 s⁻¹.
